The assay addresses Recombinant TRAF-USP7 (residues 55 to 208) (UniProt Q93009 55-208). The assay is described as follows: SPR. For orientation: Surface plasmon resonance follows binding to a sensor surface in real time, without labels.

Drawing on publication PMC9365288 (Science Advances, 2022), this text covers Kd for 1 molecule.

Chain of Recombinant TRAF-USP7 (residues 55 to 208) (Q93009 55-208): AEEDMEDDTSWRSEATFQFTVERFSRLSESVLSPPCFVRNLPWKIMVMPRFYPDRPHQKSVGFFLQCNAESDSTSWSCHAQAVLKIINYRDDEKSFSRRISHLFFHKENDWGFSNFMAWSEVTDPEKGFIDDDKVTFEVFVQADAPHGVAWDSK

B1: Recombinant BTB-Keap1 (residues 48 to 180) (domain or fragment, UniProt Q14145 48-180, looked up)
chain: GNRTFSYTLEDHTKQAFGIMNELRLSQQLCDVTLQVKYQDAPAAQFMAHKVVLASSSPVFKAMFTNGLREQGMEVVSIEGIHPKVMERLIEFAYTASISMGEKCVLHVMNGAVMYQIDSVVRACSDFLVQQLD
Turning to B1, the equilibrium dissociation constant (Kd) (as a rule, the constant that tells how readily two partners part at equilibrium) was 18 nM.
